The values below are quoted from earlier work in article PMC2846234.

The series concerns the target beta sliding clamp (Escherichia coli) (UniProt P0A988).
Sequence of UniProt P0A988 (P0A988 whole entry): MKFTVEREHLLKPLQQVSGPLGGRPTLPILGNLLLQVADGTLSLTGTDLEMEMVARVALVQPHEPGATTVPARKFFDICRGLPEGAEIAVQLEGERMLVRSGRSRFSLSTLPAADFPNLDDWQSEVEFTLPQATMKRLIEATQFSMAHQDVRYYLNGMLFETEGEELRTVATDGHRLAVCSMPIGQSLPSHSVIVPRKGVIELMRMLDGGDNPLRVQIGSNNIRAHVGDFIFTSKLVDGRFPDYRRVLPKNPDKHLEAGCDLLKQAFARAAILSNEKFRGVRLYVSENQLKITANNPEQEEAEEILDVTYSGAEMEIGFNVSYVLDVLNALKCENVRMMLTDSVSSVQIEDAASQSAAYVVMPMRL

DNA polymerase II (from UniProt P21189): the dissociation constant (Kd) is 32 nM.

One may read the Kd as the constant that tells how readily two partners part at equilibrium.
